Assay: soluble fraction after stress (log2 fold change); higher = more stays soluble; pooled small domains, quantitative proteomics
Settings: stress: 75 degC
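Note: 20 min heating vs room temperature control held 20 min.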

Sequence | soluble fraction (log2)
HMSVNEKVRLFRELNQWSQEEMAERMNMSVAGYAKIERGETNISLHKLKQIASVLQIDLLDLVS | -2.1
HMSVPEAAERAIDVAQMRRALGELSPEQQRVLELAYFGGLTRQEIARATGTPLGTVHTRARLGLQNLRARL | -0.306
HMSVPRVWTDIQGRRVKGDFEGLRGDLVVLRVGGKSYAFPLVRLIASDQAYARSLVAGNPSK | -1.5
HMSVPSLVGKTDSEAQSAIKSAGLKVGTVTYQYSDETEKGYVVSQSPYSGNKVNAGSTVNIVVSKGK | 0.0467
HMSVPSVAAVREQTGLSQVKFASLLGVSVRTLQEWEQGRRAPSGAARTLLMVAAKNPQALLEV | -1.31
HMSVSVEEDADGRVWVYYQDQKMDITDLFDENGVYGFNLEKGDRTVYVEVTKNADGTYSFTQTD | 0.427
HMSVTIENQINTYFQTRDKISRDELVALIKKDFANWTDNTINIYVSSLQKRGIIHSLSRGMYALGN | -4.25
HMSVTYRLLITSSPGQAEVFLDGKRVGITPFSARLAAGWYQVRVSKEGYNLWEQHVQLREDQRLTATLT | -3.17
HMSWAAQVVDKMTNDQLIKSLNEIVNTGKQLGLDITVEQNGDKNFIMTVKDSKGNVQLVTPIG | 0.108
HMSWEQELIEKANEIIDLYPEKRSALGPLLYLAQERDGYISDESIVEISNLVGITEVQVKSVASFYSMYK | -3.62
HMSWNIHEAVEYYKGQDAPQNQFALVELLKEVQEHNGGVLTDIAVEEIAALLNTKVTFLNAVIKRYPSLK | -0.661
HMSYEDLIQAVSGHFGIEIRALLSEDRKKENMIPRQVAMYLLKNKLHYTYERIGNIFSGRNHTAVMYSV | -0.263
HMSYGKVQFVIDAKDAVLSIDGKETDYEKPVKLTYGSHTITVYSSDYDTWKRNLYVNSEKSTVVINLA | -3.13
HMSYKDIKEASDTGTYRDEENNIDVKWQKLFNGHNEYFDIEAYRDGERVEINNQQADRYIYLIKQEMD | 0.678
HMSYPEIFQSLTEREQKIADMIAEHLSNKEIAEKMFLSEGTIKQYINQIYSKLQITGDIRNKRKQLIELFH | -1.62
HMSYTPGQWVEASMPNATFFRIVPSGNATADKMLAVATPMKVISTSGTYVKVELDSGDVGFVPEIMV | -0.199
HMTAEASELRERIRAAMATLPPAQQRVIELAYFEGLTQREIAALLNEPLGTIKTRMRLGMRKLKDVL | -2.35
HMTAIKAGDLVKITGTKYYGGQTIPGWVKNQNWYVQEVSGDRAVINKNESGTNAIMSPIRVSDLTPVS | 0.036
HMTALPPNVSIDSDERRLLEAIGFDPVDMDVLARDGQFSSVDLFRLLVSLELKGLVENQHGAYQRL | -1.85
HMTALSAREHEVLQLITRGYTADEIAAMLQISRHTALTYVRRIYSKLKVNSKAEAIFEVRQR | -0.926
HMTANPHKPEPLQIDTSDITPGVTVIHKAFGNGTVVSVDNNRILIDFDGIEKKFPFPGAFLYGFLQK | -0.547
HMTAPDDFIRAEVTASGKNGMAVAELSKRVRTRFKSFKVRELGYPHLAGYLADVEGVRVYKQGRENWVAK | -0.899
HMTAQASDIEKVLQVIETLGFRGHTLPGENRTAIGVTGNRGSIDPAHFENLPGVADAIRVTKPY | -0.0976
HMTARPTLEKLKYMIHEAGITENSLKVIVATKGHYGLDADISTYSDDFITRWIIPNWTKIVQTISNNK | -1.81
HMTASSYMGMQLGRLEELLKKEVLSLSEKTELKDLISDFDKIPEVVSPKIIGRYLQLKNQHFAKINA | -0.437
HMTAVVPNFKGKLISELSNFVADKNVRYTIIDSIYDPEEKSGIVIKQDPEEKTQVKHNRIIYLYVTST | -1.51
HMTDDFAGRFNELLIHNQETAVTAATRLEVSPAVITKWRQGKSIPSGEYIKRIVETYHVSADYLLGVIDTP | -0.838
HMTDEEFSRIVKYTAVRYGINLYHKKVMVEGRLSNYLAANGFKSYTEYMDRVEADYTGQEAQNLINILTT | -2.53

Sequence | soluble fraction (log2)
HMTDFDPDGREKLIKVQKALHFNNHQLADALRVGQATFSSYIYGRVAAGVPVRVVKAAEDLLKNSKATV | -0.531
HMTDFDWSLFTQQLKRFNLFLSYDDREKLQTFQTLYGLNELDLAEYVAKASAGEKNGLNFNYLRQLINKEK | -1.46
HMTDFNTFSDAIIAAVGSRASGLKVVDNAVSVMVDVSGLNEDQRVEIEADVRAAAEHAGAQSVRIMLT | -0.58
HMTDLALHIGKTLRELRQRRGWSLDKTAQATGVSKAMLGQIERGESSPTVVTLWRISSGLQASFSEFLPP | -3.69
HMTDLDVAVTMTVALEEAVNGATRRVRLPNGKELNVKIPAGVAAGQQIRLKGQGETAPGHRPGDVLITVNI | -0.712
HMTDLQNDIQAFNLKKMSYQHETKKLEEKRNPEKLEKLEQDIQALYLRIMENPNMRAFDSAKQALYLQIM | -0.948
HMTDLVVGLAGITLEPLRPAGKAEFNGSVVDVVSLGDYIEKSTAIQIVEIEGNRIVVHHGED | -0.865
HMTDQYEVQNLVGLTVREAQEKEGVKDIFEVREVGSEFSAEYDAGLIVRQSPDAGEQRKGEGLVIEVWVSA | 0.106
HMTDSLELADLLRRAIITGEYKPRERLVEMELAQKYSVSRTPVREALKHLEALGLVKMERYKGAMVAD | -0.911
HMTDSQLVEAENHVALRQAMAHLGPRERELIGLYYFEEQSQTQIAARFGVSQMQVSRWLTSAVGRIRGQMA | 0.209
HMTDWNTVEKETLSAIQKVLSGQASWIDLSPADHSIRHMQHEMVQQAGLISQSYGKEPMRRIRIYQNP | -0.039
HMTEDADIERRLTGILASAGWYRSLAVEVKEGIVYLDGATASGNHRDWAGSLAAKTEGVVAVVNRIEVQP | -1.86
HMTEDIAVRILEFLEDNNGFYALNDKTPSEKIHDLFGVSKKKFKIALGGLYKQRLITVSDAGVTLVK | -1.67
HMTEDTPIIVERVVADIDENVVAIVRKFKDAFKSITAQREIKKKLRSILWVNYQIKDQEVFDKAYQYIEMY | 0.241
HMTEEDVVIFSGLSDRDLKMVQTELANSGIKYTLPTSGTVSVPNSEIARAQMVLAMAGIPRS | 0.246
HMTEEVIIQNYIGKNFNDVRDELEAKGITVDEPNMKYSDEFKENTIMAQSIKPGQPLKPGGFNSIKFDVS | -0.0167
HMTEFFNMQDMFYFKLTGDVTSKERRQSLGKILGIGYGNAAQMVSRLNNYGITKEEFTNAINEIEKQMEAG | -0.715
HMTEISGIEKFLASGAINGIGPAMAKKIVAEFGEKTLEIIAKSPNELLKVPGIGKKTAEKISTSYLEQ | -0.04
HMTEKEEERTEDLNYYRLNLISMLKSSYPEYLDDEEFISNRSQEAAEAFEDAVRSGSNYLDASAESNRTLY | -0.229
HMTEKIRLTVDEAGKNQRVDKYISTLLTQFSRSSIKTWIETGNILLDNTRTKPRTLLSPGQVIDIQPRFED | -1.09
HMTEKIVFNIDGQTGRIDKILADFMTGTSRSQIQAWVKDGNLMVNDKAVKSNYKVQDGDLLELTIPEPEQ | -0.284
HMTELIEDYVELIGDLIRHRGEARAADIANRMAVSQATVSKMIRRLNELGLVTSKPYRSLFLTDEGQKMAE | -0.363
HMTELLTPKQRQVFELALREGYYDVPRRTSITEMARLLGVAKSTLSAQMHRMEATVMSTFAEEIRKQ | -2.01
HMTENIPPVKIEEMRQKWQDIVLLHGVTSGRKIKSGQATYIWLYRNDQNWLLTFNSRHLSQPQV | 0.232
HMTEPKILTAEESQRLDLILVQQWPELGRRALRELVQQGGVRINGELALKAGQYVQAGERVEVAVP | 0.232
HMTEQKNNEQQNAVNEKKQALKQLMEKGKEKGSLSYNEVNALLDKLEFTEDQKAIVYDQLHSEDIELQ | 0.3
HMTEQLTLVGKTGVTTTDLRPSGKVEVDGKRYDAVADNGAFISKGAHIKVVRYVTGQVYVVPTD | -0.0624

Source: the domain aggregation screens of Martell et al. (2025)
